From PMC7877763, “Aberrant binding of mutant HSP47 affects posttranslational modification of type I collagen and leads to osteogenesis imperfecta” (PLoS Genetics, 2021)
Numbering of substitutions follows the chain as printed. Numbers in names are those of the source.

Legend:
[1] = biological target: T1, type I collagen from rat tail (rat, UniProt P02454 152-1207; P02466 86-1125); assay: ELISA; ELISA-like binding assay; type I collagen from rat tail coated at 10 ug/mL on MaxiSorp plates (coating of GPR-foldon not described); His-tagged HSP47 at 1.2 to 5,000 nM in solution; detected with HRP-coupled anti-His antibody; four-parameter logistic fit; conditions: both partners purified
T1 construct: collagen alpha-1(I) chain, rat; collagen alpha-2(I) chain, rat; Chain composition as the introduction tells of type I collagen in general; also called full length type I collagen; source: bought: BD Bioscience; copies: 2 + 1

[2] = biological target: T2, full length pepsinized type I collagen from mouse tail tendon (mouse, UniProt P11087 152-1207; Q01149 86-1125); assay: SPR; BIAcore X; type I collagen from mouse tail tendon immobilised on a CM5 chip by amide coupling (about 6,000 RU); HSP47 flowed over; 20°C; HBS-P (10 mM Hepes pH 7.4, 150 mM NaCl, 0.005% Surfactant P20); 10 ul/min; Langmuir binding model; conditions: both partners purified
T2 construct: collagen alpha-1(I) chain, mouse; collagen alpha-2(I) chain, mouse; Chain composition (two alpha1(I), one alpha2(I)) as the introduction tells of type I collagen in general; source: purified from mouse tail tendon (pepsinized); copies: 2 + 1
T2 sequence (P11087 152-1207, chain 1 of 2): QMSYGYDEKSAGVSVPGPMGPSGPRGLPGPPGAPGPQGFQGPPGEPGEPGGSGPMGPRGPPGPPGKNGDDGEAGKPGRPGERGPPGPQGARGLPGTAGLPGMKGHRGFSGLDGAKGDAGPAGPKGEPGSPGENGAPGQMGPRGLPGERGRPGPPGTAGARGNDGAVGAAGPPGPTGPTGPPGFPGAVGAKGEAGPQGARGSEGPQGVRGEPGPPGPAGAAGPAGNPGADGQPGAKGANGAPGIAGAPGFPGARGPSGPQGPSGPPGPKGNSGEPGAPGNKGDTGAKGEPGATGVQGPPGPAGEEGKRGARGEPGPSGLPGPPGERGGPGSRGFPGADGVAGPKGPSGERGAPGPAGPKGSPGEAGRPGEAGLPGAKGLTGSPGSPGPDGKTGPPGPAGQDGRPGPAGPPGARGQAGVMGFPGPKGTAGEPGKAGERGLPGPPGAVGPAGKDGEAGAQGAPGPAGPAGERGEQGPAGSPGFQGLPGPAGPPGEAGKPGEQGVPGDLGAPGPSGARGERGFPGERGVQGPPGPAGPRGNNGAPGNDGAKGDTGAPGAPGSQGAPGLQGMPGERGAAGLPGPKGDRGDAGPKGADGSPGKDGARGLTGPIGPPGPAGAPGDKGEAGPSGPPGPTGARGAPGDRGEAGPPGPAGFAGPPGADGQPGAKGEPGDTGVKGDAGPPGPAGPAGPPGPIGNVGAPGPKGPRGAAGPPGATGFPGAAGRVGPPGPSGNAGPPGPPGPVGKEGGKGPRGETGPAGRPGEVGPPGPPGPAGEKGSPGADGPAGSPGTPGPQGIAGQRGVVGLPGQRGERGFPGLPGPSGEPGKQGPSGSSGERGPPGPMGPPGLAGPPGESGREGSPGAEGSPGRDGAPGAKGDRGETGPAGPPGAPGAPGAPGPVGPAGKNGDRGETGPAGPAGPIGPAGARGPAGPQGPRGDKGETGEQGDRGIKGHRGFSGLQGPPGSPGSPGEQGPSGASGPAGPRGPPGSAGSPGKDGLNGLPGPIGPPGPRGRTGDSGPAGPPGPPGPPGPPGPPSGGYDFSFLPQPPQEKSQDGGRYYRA
T2 sequence (Q01149 86-1125, chain 2 of 2): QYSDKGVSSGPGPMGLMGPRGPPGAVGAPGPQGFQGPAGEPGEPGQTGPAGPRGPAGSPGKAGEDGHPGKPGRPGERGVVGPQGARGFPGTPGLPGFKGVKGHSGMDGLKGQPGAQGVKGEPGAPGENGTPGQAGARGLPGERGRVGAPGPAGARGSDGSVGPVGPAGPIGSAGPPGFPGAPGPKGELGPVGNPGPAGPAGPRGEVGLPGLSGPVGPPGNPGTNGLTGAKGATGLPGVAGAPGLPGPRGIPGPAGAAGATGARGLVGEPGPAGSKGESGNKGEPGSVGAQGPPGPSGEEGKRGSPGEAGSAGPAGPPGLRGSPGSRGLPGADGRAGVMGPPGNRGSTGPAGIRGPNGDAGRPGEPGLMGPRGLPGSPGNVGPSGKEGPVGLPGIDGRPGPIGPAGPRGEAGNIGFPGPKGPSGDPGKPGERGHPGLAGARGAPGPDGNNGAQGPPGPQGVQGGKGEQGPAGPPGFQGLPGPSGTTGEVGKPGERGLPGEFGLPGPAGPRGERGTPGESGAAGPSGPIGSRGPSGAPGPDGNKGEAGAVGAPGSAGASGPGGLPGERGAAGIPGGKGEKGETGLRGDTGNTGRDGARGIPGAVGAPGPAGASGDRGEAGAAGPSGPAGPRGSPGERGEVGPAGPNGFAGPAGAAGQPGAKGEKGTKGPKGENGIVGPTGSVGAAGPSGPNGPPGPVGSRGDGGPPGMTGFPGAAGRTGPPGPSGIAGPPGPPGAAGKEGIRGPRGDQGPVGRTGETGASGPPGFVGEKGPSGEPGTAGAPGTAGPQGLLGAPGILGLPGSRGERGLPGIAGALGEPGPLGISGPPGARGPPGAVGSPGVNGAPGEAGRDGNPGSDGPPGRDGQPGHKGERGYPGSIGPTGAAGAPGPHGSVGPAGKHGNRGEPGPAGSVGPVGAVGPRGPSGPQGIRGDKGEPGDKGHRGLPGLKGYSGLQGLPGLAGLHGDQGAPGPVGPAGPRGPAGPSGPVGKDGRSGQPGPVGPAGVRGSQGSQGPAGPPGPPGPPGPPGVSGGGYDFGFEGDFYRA

T1 sequence (P02454 152-1207, chain 1 of 2): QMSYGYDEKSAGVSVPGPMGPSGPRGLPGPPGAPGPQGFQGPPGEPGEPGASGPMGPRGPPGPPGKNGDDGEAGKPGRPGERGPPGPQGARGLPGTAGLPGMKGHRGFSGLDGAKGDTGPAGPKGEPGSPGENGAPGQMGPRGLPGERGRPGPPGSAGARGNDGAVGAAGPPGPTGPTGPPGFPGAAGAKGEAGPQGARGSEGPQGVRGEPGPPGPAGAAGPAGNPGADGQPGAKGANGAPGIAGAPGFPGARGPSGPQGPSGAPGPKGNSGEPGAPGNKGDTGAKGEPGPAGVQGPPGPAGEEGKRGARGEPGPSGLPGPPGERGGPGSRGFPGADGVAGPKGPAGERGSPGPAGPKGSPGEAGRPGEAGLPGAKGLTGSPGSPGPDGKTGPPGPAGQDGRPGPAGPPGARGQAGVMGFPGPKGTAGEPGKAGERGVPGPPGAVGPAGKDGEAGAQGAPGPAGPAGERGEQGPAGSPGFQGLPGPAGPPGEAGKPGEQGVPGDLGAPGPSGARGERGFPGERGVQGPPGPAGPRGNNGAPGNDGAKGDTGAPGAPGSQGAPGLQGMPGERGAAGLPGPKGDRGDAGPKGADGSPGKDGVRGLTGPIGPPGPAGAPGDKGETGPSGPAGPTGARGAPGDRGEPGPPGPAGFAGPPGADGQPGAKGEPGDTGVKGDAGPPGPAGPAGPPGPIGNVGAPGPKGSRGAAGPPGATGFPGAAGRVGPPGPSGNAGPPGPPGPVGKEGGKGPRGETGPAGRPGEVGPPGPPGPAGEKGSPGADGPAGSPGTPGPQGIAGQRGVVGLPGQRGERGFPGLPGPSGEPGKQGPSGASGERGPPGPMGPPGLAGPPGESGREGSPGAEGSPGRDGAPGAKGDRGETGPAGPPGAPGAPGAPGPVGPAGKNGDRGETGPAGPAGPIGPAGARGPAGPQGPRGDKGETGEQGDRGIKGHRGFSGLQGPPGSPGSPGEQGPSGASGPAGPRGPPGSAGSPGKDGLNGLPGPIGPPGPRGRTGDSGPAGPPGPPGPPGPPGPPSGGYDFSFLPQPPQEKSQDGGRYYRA
T1 sequence (P02466 86-1125, chain 2 of 2): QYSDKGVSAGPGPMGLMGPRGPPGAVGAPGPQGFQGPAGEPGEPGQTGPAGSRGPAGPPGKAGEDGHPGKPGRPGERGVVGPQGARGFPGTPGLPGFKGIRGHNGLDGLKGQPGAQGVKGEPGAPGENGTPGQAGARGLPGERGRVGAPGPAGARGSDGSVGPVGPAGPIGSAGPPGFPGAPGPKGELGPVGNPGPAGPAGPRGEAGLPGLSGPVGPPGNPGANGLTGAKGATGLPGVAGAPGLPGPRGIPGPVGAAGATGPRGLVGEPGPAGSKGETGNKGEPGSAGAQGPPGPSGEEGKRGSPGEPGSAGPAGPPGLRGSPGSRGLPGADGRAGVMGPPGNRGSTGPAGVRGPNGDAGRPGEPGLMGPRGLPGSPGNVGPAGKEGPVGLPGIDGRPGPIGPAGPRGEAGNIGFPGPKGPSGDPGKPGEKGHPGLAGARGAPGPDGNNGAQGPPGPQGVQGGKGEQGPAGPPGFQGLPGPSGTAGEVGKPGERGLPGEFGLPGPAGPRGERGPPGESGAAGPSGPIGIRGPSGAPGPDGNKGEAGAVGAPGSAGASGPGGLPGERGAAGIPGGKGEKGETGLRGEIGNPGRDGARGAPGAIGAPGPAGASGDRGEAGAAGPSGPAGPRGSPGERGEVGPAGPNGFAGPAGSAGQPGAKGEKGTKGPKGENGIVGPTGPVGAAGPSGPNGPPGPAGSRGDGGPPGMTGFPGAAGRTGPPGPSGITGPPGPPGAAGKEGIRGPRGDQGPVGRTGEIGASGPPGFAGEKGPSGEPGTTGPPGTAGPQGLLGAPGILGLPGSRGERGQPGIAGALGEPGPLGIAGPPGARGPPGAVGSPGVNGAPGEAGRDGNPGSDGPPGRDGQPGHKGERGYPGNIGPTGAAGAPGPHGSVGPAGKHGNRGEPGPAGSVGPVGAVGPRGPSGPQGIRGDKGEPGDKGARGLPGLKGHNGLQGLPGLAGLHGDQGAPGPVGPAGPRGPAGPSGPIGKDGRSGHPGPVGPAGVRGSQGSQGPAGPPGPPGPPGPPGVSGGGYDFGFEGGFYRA

B1: recombinant wild-type canine HSP47 (natural protein, UniProt C7C419 36-418, looked up)
chain: LSPKAATLAERSAGLAFSLYQAMAKDQAVENILLSPVVVASSLGLVSLGGKATTASQAKAVLSAEQLRDEEVHAGLGELLRSLSNSTARNVTWKLGSRLYGPSSVSFAEDFVRSSKQHYNCEHSKINFRDKRSALQSINEWAAQTTDGKLPEVTKDVERTDGALLVNAMFFKPHWDEKFHHKMVDNRGFMVTRSYTVGVTMMHRTGLYNYYDDEKEKLQIVEMPLAHKLSSLIILMPHHVEPLERLEKLLTKEQLKIWMGKMQKKAVAISLPKGVVEVTHDLQKHLAGLGLTEAIDKNKADLSRMSGKKDLYLASVFHATAFEWDTEGNPFDQDIYGREELRSPKLFYADHPFIFLVRDTQSGSLLFIGRLVRPKGDKMRDEL
notes: HSP47 (serpin H1), canine, residues 36-418 printed as 36LSP; RDEL418, in a pJExpress411 vector; The methods describe a strep-tagged construct; the ELISA methods speak of His-tagged HSP47 proteins detected by an anti-His antibody; also called wild-type HSP47; WT HSP47; source: E. coli BL21 (DE3), purified (Streptactin column, Superdex 200 SEC)
Kd [1]: 0.139 µM | Kd [2]: 0.06 µM

B2: recombinant canine HSP47-R222S (natural protein, UniProt C7C419 36-418, looked up)
chain: B1 chain with R187S
notes: HSP47 (serpin H1), canine, residues 36-418 (36LSP... RDEL418) with R222S introduced by Quikchange mutagenesis; The substitution is the one found in the human patient, placed in the canine protein; Strep tag by the purification methods, His tag by the ELISA methods; also called R222S HSP47; source: E. coli BL21 (DE3), purified as wild-type HSP47 (Streptactin column, Superdex 200 SEC)
Kd [1]: ~3.6 µM | Kd [2]: 0.64 µM
